Molecular target: human CCR5 (human) (UniProt P51681)
Test: cell-based or functional assay

Sequence of human CCR5 (human) (P51681 whole entry): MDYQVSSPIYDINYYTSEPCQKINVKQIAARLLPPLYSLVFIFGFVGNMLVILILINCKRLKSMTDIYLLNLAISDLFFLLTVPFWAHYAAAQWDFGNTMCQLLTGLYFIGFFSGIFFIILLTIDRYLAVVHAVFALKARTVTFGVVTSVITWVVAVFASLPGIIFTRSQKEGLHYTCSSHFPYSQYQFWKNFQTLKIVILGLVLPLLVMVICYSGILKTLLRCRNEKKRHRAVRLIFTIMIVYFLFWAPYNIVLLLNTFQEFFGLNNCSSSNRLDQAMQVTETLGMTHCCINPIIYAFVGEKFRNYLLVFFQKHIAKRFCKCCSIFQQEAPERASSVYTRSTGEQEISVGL

AOP-RANTES (from UniProt P13501 24-91) (ligand)
CCR5 receptor downmodulation on CHO cells expressing CCR5 (FACS) at 1 nM AOP-RANTES: 50% | CCR5 receptor downmodulation on CHO cells expressing CCR5 (FACS) at 100 nM AOP-RANTES: 90%

Reference: patent US20060078537A1
